Each block holds one binder with its values, some of them ahead of it.
Columns and labels:
[1] = target: T1, human sclerostin AspN peptide AspN18.6 (FIG. 12 labels it '(Glycopeptide)'. The glycan site is not stated. The only N-X-T sequon is NKT, so the glycosylated residue is probably Asn at chain 1 pos 22, written N.); assay: Biacore human sclerostin peptide epitope competition binding assay: 2 nM Mab preincubated with 20 nM peptide in solution, then injected over immobilised human sclerostin; unchanged Ru signal means the Mab did not bind the peptide
T1 peptide: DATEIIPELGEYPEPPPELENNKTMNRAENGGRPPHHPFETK
Method: (§1) Immobilization of mature form human sclerostin to a BIAcore sensor chip (CM5) surface was performed according to manufacturer's instructions. Briefly, carboxyl groups on the sensor chip surfaces were activated by injecting 60 μL of a mixture containing 0.2 M N-ethyl-N′-(dimethylaminopropyl) carbodiimide (EDC) and 0.05 M N-hydroxysuccinimide (NHS). Human sclerostin was diluted in 10 mM sodium acetate, pH 4.0 at a concentration of 20 μg/mL followed by injecting over the activated CM5 surface. Excess reactive groups on the surfaces were deactivated by injecting 60 μL of 1M ethanolamine. Final immobilized levels were ˜5000 resonance units (RU) for the human sclerostin surface. A blank, mock-coupled reference surface was also prepared on the sensor chips.

[2] = target: T2, human sclerostin tryptic peptide T20.6 (human); assay: as above
T2 chain 1: DVSEYSCRELHFTR
T2 chain 2: SAKPVTELVCSGQCGPAR
T2 chain 3: WWRPSGPDFRCIPDRYR
T2 chain 4: LVASCKCKRLTR
Method: as §1

[3] = target: T3, human sclerostin tryptic peptide T19.2 (Interchain disulfide C2-C6 (Cys71-Cys125 of SEQ ID NO:1): chain 1 pos 7 to chain 2 pos 5.); assay: as above
T3 construct: Two peptides linked by the C2-C6 disulfide bond
T3 peptide 1: YVTDGPCR
T3 peptide 2: VQLLCPGGEAPR
Method: as §1

[4] = target: T4, human sclerostin, mature form (signal peptide removed) (human, UniProt Q9BQB4 24-213); assay: Biacore human sclerostin peptide epitope competition binding assay: 2 nM Mab injected over human sclerostin immobilised on a CM5 chip, alone or after preincubation with 20 nM soluble human sclerostin
T4 construct: 190 amino acid glycoprotein with four disulfide bonds (C1-C5, C2-C6, C3-C7, C4-C8); also called SOST; recombinant human sclerostin
T4 sequence: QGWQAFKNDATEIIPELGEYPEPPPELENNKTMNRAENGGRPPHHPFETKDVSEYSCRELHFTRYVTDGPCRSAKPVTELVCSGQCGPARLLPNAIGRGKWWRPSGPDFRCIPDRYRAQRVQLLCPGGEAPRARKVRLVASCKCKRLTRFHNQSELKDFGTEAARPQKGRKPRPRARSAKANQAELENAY
Method: as §1

[5] = target: T2, human sclerostin tryptic peptide T20.6; assay: Biacore human sclerostin peptide epitope competition binding assay: 2 nM Mab preincubated with 20 nM peptide in solution, then injected over immobilised human sclerostin; loss of Ru signal means the Mab bound the peptide
Method: as §1

[6] = target: T4, human sclerostin, mature form (signal …); assay: Biacore cross-blocking, human sclerostin on CM5 chip; mixed with competitor Ab-4, each 1.3 uM binding sites
Method: (§2) Human sclerostin was coupled to a CM5 Biacore chip using standard amine coupling chemistry to generate a sclerostin coated surface. 300 resonance units of sclerostin were coupled to the surface.
(§3) 20 μL of the test mixture was passed over the sclerostin-coated chip at a flow rate of 10 μL/min and the amount of binding recorded. The chip was then treated with two 60 second pulses of 30 mM HCl to remove all of the bound antibody. A solution containing only one of the antibodies of the test mixture (at 1.3 μM in the same buffer as the test mixture on a binding site basis) was then passed over the chip in the same manner as the test mixture and the amount of binding recorded. The chip was again treated to remove all of the bound antibody and finally a solution containing the other antibody from the test mixture alone (at 1.3 μM in the same buffer as the test mixture on a binding site basis) was passed over the chip and the amount of binding recorded.
(§4) The table below show the results from cross-blocking assays on a range of different antibodies. The values in each square of the table represent the amount of binding (in RU) seen when the antibodies (at 1.3 μM on a binding site basis) or buffer indicated in the top row of the table were mixed with the antibodies (at 1.3 uM on a binding site basis) or buffer indicated in the first column of the table.

[7] = target: T4, human sclerostin, mature form (signal …); assay: Biacore cross-blocking on human sclerostin; mixture with competitor Ab-19, mean RU against the sum of each alone
Method: as §2
(§5) The antibodies to be tested were diluted to a concentration of 200 ug/ml in HBS-EP buffer (being 10 mM HEPES pH 7.4, 150 mM NaCl, 3 mM EDTA, 0.005% (v/v) Surfactant P20) and then mixed in a one to one molar ratio (on a binding site basis) to generate the test mixture. This test mixture thus contained each antibody at a concentration of 100 ug/ml (1.3 um on a binding site basis). Separate solutions containing each of the antibodies in the test mix alone were also prepared. These solutions contained the individual antibodies in HBS-EP buffer at a concentration of 100 ug/ml (1.3 um on a binding site basis).
as §3

[8] = target: T4, human sclerostin, mature form (signal …); assay: Biacore cross-blocking, human sclerostin on CM5 chip; mixed with competitor Ab-13, each 1.3 uM binding sites
Method: as §2, §5, §3

[9] = target: T4, human sclerostin, mature form (signal …); assay: Biacore cross-blocking on human sclerostin; mixture with competitor Ab-3, mean RU against the sum of each alone
Method: as §2, §5, §3

[10] = target: T4, human sclerostin, mature form (signal …); assay: Biacore cross-blocking, human sclerostin on CM5 chip; mixed with competitor Ab-19, each 1.3 uM binding sites
Method: as §2, §5, §3

[11] = target: T4, human sclerostin, mature form (signal …); assay: Biacore cross-blocking, human sclerostin on CM5 chip; mixed with competitor Ab-3, each 1.3 uM binding sites
Method: as §2, §3, §4

binding result [1]: no binding (tested: 20 nM)
binding result [2]: no binding (tested: 20 nM)
binding result [3]: no binding (tested: 20 nM)
binding result [4]: binds
B1: Antibody B (antibody, mouse IgG1, kappa, V domains shown)
VH: QVTLKESGPGILQPSQTLSLTCSFSGFSLSTSGMGVGWIRHPSGKNLEWLAHIWWDDVKRYNPVLKSRLTISKDTSNSQVFLKIANVDTADTATYYCARIEDFDYDEEYYAMDYWGQGTSVIVSS
VL: QIVLTQSPTIVSASPGEKVTLICSASSSVSFVDWFQQKPGTSPKRWIYRTSNLGFGVPARFSGGGSGTSHSLTISRMEAEDAATYYCQQRSTYPPTFGAGTKLELKR
notes: Mouse antibody; mature chains; also called Ab-B; Mab-B

binding result [5]: binds
binding result [1]: no binding (tested: 20 nM)
binding result [3]: no binding (tested: 20 nM)
binding result [4]: binds
B2: Antibody C (antibody, mouse IgG1, kappa, V domains shown)
VH: EVQLQQSGPELVKPGTSVKMSCKASGYTFTDCYMNWVKQSHGKSLEWIGDINPFNGGTTYNQKFKGKATLTVDKSSSTAYMQLNSLTSDDSAVYYCARSHYYFDGRVPWDAMDYWGQGTSVTVSS
VL: DIVLTQSPASLTVSLGLRATISCKASQSVDYDGDSYMNWYQQKPGQPPKLLIYAASNLESGIPARFSGNGSGTDFTLNIHPVEEEDAVTYYCQQSNEDPWTFGGGTKLEIKR
notes: Mouse antibody; mature chains; also called Ab-C; Mab-C

Second part, the binder before the results:

B3: Antibody D (antibody, mouse IgG1, kappa, V domains shown)
VH: EVQLQQSGPELVTPGASVKISCKASGYTFTDHYMSWVKQSHGKSLEWIGDINPYSGETTYNQKFKGTATLTVDKSSSIAYMEIRGLTSEDSAVYYCARDDYDASPFAYWGQGTLVTVSA
VL: DVQMIQSPSSLSASLGDIVTMTCQASQGTSINLNWFQQKPGKAPKLLIYGSSNLEDGVPSRFSGSRYGTDFTLTISSLEDEDLATYFCLQHSYLPYTFGGGTKLEIKR
notes: Mouse antibody; mature chains; also called Ab-D; Mab-D
binding result [5]: binds
binding result [1]: no binding (tested: 20 nM)
binding result [3]: no binding (tested: 20 nM)
binding result [4]: binds

B4: Antibody A (antibody, mouse IgG1, kappa, V domains shown)
VH: QSLEESGGRLVTPGTPLTLTCTASGFSLSSYWMNWVRQAPGEGLEWIGTIDSGGRTDYASWAKGRFTISRTSTTMDLKMTSLTTGDTARYFCARNWNLWGQGTLVTVSS
VL: AQVLTQTPASVSAAVGGTVTINCQSSQSVYDNNWLAWFQQKPGQPPKLLIYDASDLASGVPSRFSGSGSGTQFTLTISGVQCADAATYYCQGAYNDVIYAFGGGTEVVVKR
notes: Rabbit-mouse chimeric antibody; mature chains (signal peptides cleaved off); also called Ab-A; Mab-A
binding result [1]: no binding (tested: 20 nM)
binding result [2]: no binding (tested: 20 nM)
binding result [3]: no binding (tested: 20 nM)
amount of binding (RU) [6]: 833 RU
percentage of the theoretical binding [7]: 65%
amount of binding (RU) [8]: 1080 RU
percentage of the theoretical binding [9]: 93.5%
amount of binding (RU) [10]: 868 RU
amount of binding (RU) [11]: 946 RU

— patent US20140248666A1 (Amgen, published 2014)
